The target in experiment [1] is T1, CC chemokine receptor 8 (CCR8) (human, UniProt P51685 1-355). Nature of the experiment: radioligand binding.
Experiment [2] addresses T1, CC chemokine receptor 8 (CCR8). Kind of experiment: radioligand binding. This is another data set of the same source.

Like-named read-outs stand apart in the source and are kept apart here.

T1 sequence (P51685 whole entry): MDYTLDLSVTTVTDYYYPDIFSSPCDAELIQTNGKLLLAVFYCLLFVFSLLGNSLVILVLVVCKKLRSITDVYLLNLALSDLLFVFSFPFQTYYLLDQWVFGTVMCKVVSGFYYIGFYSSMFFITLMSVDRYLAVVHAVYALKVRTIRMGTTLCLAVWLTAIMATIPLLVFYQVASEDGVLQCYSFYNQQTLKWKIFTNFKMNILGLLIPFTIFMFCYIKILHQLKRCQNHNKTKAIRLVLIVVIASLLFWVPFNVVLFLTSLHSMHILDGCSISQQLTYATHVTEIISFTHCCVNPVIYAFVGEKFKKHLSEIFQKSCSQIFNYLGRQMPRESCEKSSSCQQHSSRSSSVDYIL

B1: MC148 CC chemokine from molluscum contagiosum virus (MCV), processed secreted protein (ligand, molluscum contagiosum virus subtype 1, UniProt Q98314 1-104, looked up)
chain: LARRKCCLNPTNRPIPNPLLQDLSRVDYQAIGHDCGREAFRVTLQDGRQGCVSVGNKSLLDWLRGHKDLCPQIWSGCESL
B1: the IC50 in experiment [1] was 0.47 nM; in experiment [2], 0.27 nM.

B2: I-309 (ligand, human, UniProt P22362 24-96, looked up)
chain: KSMQVPFSRCCFSFAEQEIPLRAILCYRNTSSICSNEGLIFKLKRGKEACALDTVGWVQRHRKMLRHCPSKRK
B2 registered an IC50 in experiment [1] of 0.52 nM. In other words, the sub-nanomolar range.

B3: viral macrophage inflammatory protein (vMIP)-II encoded by human herpesvirus 8 (HHV8) (ligand, UniProt Q98157 21-94, looked up)
chain: GDTLGASWHRPDKCCLGYQKRPLPQVLLSSWYPTSQLCSKPGVIFLTKRGRQVCADKSKDWVKKLMQQLPVTAR
B3 showed an IC50 in experiment [1] of 27.8 nM.

The values are drawn from PMC2195798 (The Journal of Experimental Medicine, 2000).
